Laboratory results as given in paper PMC10620989 (2023).

Target: Bim BH3 peptide (FITC-labeled) BH3 (Homo sapiens, UniProt O43521, FITC-labeled Bim BH3 peptide, GST-tagged Mcl-1)
Assay: fluorescence polarization

Kd: 12.4 nM
B1: Mcl-1 (GST-tagged) 152-309 (protein)
chain: EDDLYRQSLEIISRYLREQATGSKDSKPLGEAGAAGRRALETLRRVGDGVQRNHETAFQGMLRKLDIKNEGDVKSFSRVMVHVFKDGVTNWGRIVTLISFGAFVAKHLKSVNQESFIEPLAETITDVLVRTKRDWLVKQRGWDGFVEFFHVQDLEGGI
